The supplement of paper PMC10065799, “High-throughput profiling of sequence recognition by tyrosine kinases and SH2 domains using bacterial peptide display” (eLife, 2023)

Columns and labels:
Fyn = Fyn (UniProt P06241); assay: phosphorylation enrichment, bacterial display (enrichment ratio); higher = better substrate or ligand; peptides without Tyr show the background
FGFR3 = FGFR3 (UniProt P22607); assay: as above
c-Abl (mouse) = assay: as above
EPHB2 = EPHB2 (UniProt P29323); assay: as above
Fes = Fes (UniProt P07332); assay: as above
Fes, sequence (P07332 whole entry, looked up): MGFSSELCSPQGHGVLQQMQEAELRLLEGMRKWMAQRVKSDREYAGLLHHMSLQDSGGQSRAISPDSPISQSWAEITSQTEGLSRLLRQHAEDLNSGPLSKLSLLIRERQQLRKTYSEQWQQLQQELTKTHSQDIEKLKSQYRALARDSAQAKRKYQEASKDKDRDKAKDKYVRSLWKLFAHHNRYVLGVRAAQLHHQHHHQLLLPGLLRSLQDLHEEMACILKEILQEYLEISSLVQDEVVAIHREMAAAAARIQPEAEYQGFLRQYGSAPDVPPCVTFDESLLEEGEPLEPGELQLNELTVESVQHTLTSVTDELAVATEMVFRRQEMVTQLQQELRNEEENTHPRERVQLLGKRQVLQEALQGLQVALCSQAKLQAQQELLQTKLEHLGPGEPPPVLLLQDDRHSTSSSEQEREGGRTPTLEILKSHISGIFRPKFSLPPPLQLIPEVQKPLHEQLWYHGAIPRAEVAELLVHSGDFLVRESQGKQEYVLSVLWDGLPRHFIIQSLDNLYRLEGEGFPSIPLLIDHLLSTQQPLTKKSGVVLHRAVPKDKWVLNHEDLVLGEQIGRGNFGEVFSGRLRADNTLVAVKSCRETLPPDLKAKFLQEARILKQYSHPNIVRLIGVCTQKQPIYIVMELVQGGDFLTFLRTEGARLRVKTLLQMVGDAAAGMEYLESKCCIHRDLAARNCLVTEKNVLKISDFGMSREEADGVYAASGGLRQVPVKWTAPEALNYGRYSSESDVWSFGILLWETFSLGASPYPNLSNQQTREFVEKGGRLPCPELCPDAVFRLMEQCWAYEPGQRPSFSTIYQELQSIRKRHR

MERTK = MERTK (UniProt Q12866); assay: as above
MERTK, sequence (Q12866 whole entry, looked up): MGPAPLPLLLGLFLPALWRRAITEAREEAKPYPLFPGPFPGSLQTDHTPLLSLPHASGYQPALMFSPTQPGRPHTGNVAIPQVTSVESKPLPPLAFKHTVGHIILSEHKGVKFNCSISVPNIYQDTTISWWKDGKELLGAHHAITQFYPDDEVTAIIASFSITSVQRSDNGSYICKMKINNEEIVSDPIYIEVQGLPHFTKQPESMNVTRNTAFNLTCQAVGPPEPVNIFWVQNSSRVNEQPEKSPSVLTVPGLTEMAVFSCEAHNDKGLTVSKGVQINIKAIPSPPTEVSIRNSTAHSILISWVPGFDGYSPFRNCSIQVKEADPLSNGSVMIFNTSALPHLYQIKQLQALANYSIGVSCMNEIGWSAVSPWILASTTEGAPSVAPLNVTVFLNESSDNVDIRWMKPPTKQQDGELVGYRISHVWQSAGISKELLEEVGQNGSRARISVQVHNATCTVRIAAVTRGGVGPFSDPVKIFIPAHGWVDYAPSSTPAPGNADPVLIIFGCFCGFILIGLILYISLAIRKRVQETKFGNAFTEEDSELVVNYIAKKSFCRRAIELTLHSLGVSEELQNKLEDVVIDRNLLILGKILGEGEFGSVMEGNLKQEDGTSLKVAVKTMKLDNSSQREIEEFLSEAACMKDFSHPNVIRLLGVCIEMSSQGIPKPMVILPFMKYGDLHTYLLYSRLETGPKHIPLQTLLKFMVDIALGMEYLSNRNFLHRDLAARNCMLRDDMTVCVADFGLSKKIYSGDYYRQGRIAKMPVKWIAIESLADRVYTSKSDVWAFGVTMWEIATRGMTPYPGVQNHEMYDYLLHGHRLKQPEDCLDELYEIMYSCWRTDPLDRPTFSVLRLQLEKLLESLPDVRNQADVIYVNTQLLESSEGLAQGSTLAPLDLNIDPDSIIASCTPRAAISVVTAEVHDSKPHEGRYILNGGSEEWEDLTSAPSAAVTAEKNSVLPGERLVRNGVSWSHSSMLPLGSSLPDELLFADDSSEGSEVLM

AncSZ = assay: as above
FGFR1 = FGFR1 (UniProt P11362); assay: as above
FGFR1, sequence (P11362 whole entry, looked up): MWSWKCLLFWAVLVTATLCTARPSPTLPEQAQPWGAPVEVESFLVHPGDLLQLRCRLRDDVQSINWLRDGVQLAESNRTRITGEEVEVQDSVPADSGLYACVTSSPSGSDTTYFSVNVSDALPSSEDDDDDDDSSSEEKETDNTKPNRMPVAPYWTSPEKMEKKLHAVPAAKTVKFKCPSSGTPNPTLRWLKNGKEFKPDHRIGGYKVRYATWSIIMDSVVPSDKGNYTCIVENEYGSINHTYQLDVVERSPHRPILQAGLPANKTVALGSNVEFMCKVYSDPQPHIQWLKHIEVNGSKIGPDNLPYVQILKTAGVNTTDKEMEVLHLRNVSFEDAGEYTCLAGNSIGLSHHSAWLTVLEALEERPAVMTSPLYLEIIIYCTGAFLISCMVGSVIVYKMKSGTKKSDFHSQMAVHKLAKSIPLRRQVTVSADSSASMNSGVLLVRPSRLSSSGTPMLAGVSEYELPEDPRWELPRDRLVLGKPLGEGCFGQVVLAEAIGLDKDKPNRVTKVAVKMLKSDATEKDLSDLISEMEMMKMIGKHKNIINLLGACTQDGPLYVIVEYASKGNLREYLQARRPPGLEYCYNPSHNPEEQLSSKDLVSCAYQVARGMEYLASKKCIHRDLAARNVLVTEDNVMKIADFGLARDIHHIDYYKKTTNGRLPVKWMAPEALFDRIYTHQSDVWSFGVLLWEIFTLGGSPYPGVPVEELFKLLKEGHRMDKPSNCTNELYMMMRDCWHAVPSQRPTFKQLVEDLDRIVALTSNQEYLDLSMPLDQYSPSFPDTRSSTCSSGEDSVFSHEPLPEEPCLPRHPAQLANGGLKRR

Jak2 = Jak2 (UniProt O60674); assay: as above
Jak2, sequence (O60674 whole entry, looked up): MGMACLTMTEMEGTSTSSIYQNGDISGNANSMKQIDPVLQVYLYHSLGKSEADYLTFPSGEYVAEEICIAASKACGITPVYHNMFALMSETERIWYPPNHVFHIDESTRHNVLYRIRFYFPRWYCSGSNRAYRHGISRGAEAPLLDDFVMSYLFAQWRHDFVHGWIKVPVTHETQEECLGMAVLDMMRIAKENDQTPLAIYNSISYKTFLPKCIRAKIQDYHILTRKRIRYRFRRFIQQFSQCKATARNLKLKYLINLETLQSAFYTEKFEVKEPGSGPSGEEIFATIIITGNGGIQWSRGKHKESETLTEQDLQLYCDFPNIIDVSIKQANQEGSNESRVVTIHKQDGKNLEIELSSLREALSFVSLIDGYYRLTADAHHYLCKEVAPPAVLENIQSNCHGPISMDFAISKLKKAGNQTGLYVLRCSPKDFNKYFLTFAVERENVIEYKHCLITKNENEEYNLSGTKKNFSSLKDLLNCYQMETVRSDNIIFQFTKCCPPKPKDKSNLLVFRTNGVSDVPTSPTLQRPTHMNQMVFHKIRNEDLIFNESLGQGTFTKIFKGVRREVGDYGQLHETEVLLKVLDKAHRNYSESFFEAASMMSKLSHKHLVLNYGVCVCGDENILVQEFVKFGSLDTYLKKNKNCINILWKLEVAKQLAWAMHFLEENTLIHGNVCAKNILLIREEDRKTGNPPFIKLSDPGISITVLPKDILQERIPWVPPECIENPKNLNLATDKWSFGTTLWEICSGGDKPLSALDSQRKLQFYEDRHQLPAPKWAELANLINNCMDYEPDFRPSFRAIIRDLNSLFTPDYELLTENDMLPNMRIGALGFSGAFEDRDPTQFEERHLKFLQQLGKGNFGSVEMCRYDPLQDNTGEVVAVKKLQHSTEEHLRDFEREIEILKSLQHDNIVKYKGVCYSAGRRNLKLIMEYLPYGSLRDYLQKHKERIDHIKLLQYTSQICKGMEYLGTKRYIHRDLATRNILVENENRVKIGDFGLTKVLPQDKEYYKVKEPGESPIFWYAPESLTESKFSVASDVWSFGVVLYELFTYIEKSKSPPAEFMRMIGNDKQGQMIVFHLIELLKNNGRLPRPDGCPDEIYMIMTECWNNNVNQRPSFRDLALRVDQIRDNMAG

c-Src = assay: as above
Fer (mouse) = assay: as above
Hck = Hck (UniProt P08631); assay: as above
Hck, sequence (P08631 whole entry, looked up): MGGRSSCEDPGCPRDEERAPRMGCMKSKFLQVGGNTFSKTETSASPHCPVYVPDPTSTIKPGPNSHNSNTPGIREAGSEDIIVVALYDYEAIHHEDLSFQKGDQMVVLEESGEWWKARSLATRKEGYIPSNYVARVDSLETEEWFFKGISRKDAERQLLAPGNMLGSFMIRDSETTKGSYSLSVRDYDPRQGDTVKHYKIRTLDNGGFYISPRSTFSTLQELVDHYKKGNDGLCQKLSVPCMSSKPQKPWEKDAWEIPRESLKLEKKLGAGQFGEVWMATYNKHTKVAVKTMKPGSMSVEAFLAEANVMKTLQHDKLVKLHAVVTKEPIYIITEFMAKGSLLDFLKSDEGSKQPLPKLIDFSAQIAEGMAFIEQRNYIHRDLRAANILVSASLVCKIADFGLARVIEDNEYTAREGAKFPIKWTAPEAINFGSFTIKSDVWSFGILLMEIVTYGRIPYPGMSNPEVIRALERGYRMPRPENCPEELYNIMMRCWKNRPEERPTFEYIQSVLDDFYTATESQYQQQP

EPHB1 = EPHB1 (UniProt P54762); assay: as above
SHP2-C SH2 = assay: SH2 binding enrichment of the phosphorylated peptide, bacterial display (enrichment ratio); higher = better substrate or ligand; peptides without Tyr show the background
Grb2 SH2 = Grb2 SH2 (UniProt P62993); assay: as above
Grb2 SH2, sequence (P62993 whole entry, looked up): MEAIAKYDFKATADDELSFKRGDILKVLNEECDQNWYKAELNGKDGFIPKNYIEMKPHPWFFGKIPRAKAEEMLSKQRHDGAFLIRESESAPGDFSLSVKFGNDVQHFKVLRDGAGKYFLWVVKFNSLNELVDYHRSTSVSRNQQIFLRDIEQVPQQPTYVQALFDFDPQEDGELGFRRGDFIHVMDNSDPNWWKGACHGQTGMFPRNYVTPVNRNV

c-Src SH2 = assay: as above
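Throughout, for SH2 binding enrichment of the phosphorylated peptide, bacterial display: peptide library displayed on the E. coli surface as eCPX fusions, selected cells deep-sequenced, score is each peptide's frequency after selection divided by its frequency in the input.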
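Throughout, for phosphorylation enrichment, bacterial display: 11-residue human phosphosite peptides and single-mutation variants displayed on the E. coli surface, counted by deep sequencing, each peptide's frequency after selection divided by its frequency in the unselected input library; frequency after pTyr selection over input frequency; kinase dosed for 20-30% of maximal phosphorylation in three min.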

Fyn, sequence (P06241 whole entry, looked up): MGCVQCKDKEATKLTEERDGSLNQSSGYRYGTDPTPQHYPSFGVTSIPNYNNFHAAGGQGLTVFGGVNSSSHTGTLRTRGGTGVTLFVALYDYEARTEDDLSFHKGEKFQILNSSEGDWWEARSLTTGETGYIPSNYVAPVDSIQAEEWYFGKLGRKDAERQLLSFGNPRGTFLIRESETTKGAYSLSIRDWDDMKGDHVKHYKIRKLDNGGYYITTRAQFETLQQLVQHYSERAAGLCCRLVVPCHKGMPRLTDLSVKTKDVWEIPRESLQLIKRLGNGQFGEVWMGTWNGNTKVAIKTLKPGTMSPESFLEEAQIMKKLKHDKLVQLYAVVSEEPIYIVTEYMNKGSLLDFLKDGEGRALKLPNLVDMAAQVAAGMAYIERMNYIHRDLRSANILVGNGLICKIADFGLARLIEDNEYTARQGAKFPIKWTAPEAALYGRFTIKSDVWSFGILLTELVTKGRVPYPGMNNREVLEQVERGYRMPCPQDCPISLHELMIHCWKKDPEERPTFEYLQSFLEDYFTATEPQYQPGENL

Sequence | phosphorylation enrichment (Fyn) | phosphorylation enrichment (FGFR3) | phosphorylation enrichment (c-Abl (mouse)) | phosphorylation enrichment (EPHB2) | phosphorylation enrichment (Fes) | phosphorylation enrichment (MERTK) | phosphorylation enrichment (AncSZ) | phosphorylation enrichment (FGFR1) | phosphorylation enrichment (Jak2) | phosphorylation enrichment (c-Src) | phosphorylation enrichment (Fer (mouse)) | phosphorylation enrichment (Hck) | phosphorylation enrichment (EPHB1) | SH2 binding enrichment (SHP2-C SH2) | SH2 binding enrichment (Grb2 SH2) | SH2 binding enrichment (c-Src SH2)
ARQEEYSAMRD [KRAS_Y64_G60R] | 0.429 | 0.584 | 0.837 | 0.563 | 0.902 | 0.497 | 0.962 | 0.518 | 0.896 | 0.497 | 0.387 | 0.488 | 0.508 | 0.729 | 0.824 | 0.804
ASLEAYCKHKY [RXRA_Y403] | 0.503 | 0.658 | 0.727 | 0.501 | 1.01 | 0.392 | 0.964 | 0.472 | 0.799 | 0.411 | 0.424 | 0.455 | 0.53 | 0.733 | 0.831 | 0.548
ASMAKYYASEI [ACADSB_Y372] | 0.491 | 0.576 | 0.717 | 0.32 | 0.761 | 0.731 | 0.701 | 0.483 | 0.92 | 0.595 | 0.38 | 0.515 | 0.404 | 0.554 | 0.849 | 0.575
ATGMEYLASQK [FGFR2_Y616_R612T] | 0.559 | 0.833 | 0.58 | 0.495 | 0.794 | 0.423 | 0.736 | 0.464 | 0.68 | 0.44 | 0.426 | 0.474 | 0.479 | 0.571 | 1.01 | 0.465
ATPKGYERDAS [OTC_Y223_P225R] | 0.442 | 0.471 | 0.421 | 0.522 | 0.68 | 0.447 | 0.591 | 0.462 | 0.551 | 0.369 | 0.518 | 0.399 | 0.358 | 0.562 | 0.767 | 0.444
ATQDDYVLEVR [PTPRZ1_Y2179] | 0.626 | 0.701 | 0.766 | 0.62 | 1.23 | 0.492 | 1.45 | 0.552 | 1.08 | 0.601 | 0.497 | 0.56 | 0.632 | 0.719 | 0.856 | 0.505
ATRKAYGQALA [TKT_Y321] | 0.335 | 0.395 | 0.415 | 0.348 | 0.612 | 0.432 | 0.468 | 0.391 | 0.481 | 0.366 | 0.36 | 0.412 | 0.31 | 0.594 | 0.965 | 0.622
AVAFVYYKSIG [ADGRL4_Y301] | 0.458 | 0.641 | 0.67 | 0.585 | 1.29 | 0.401 | 1.18 | 0.451 | 1.2 | 0.489 | 0.53 | 0.463 | 0.615 | 0.758 | 1.02 | 0.76
AVRFIYTIDGS [DCX_Y105_G100A_YF] | 1.56 | 0.697 | 0.706 | 0.552 | 1.28 | 0.424 | 1.32 | 0.453 | 1.27 | 1.55 | 0.529 | 0.67 | 0.574 | 0.988 | 0.928 | 0.723
AVRVFYRKCPR [EPHB2_Y194] | 0.464 | 0.645 | 0.78 | 0.463 | 0.655 | 0.517 | 0.948 | 0.428 | 0.7 | 0.557 | 0.518 | 0.512 | 0.345 | 0.529 | 0.611 | 0.417
AWVARYIFKRL [LPCAT3_Y348] | 0.502 | 0.604 | 0.748 | 0.472 | 1.25 | 0.424 | 1.26 | 0.351 | 1 | 0.346 | 0.482 | 0.48 | 0.555 | 1.1 | 1.05 | 1
CCNHPYLINGA [CHD7_Y1256] | 0.57 | 0.552 | 0.538 | 0.495 | 0.851 | 0.461 | 0.651 | 0.443 | 0.641 | 2.72 | 0.419 | 0.519 | 0.352 | 0.704 | 0.804 | 0.541
CDFKKYGKGLR [ZNF445_Y433_Y428C_YF] | 0.479 | 0.549 | 0.64 | 0.413 | 0.808 | 0.396 | 0.647 | 0.432 | 0.718 | 0.441 | 0.31 | 0.357 | 0.409 | 0.934 | 1.06 | 0.618
CEDGTYSPEIS [PTDSS1_Y424] | 0.512 | 0.824 | 0.838 | 0.578 | 1.33 | 0.486 | 1.2 | 0.5 | 1.33 | 0.663 | 0.589 | 0.595 | 0.649 | 1.13 | 0.835 | 0.519
CEHRGYLFLAI [TEK_Y897_YF] | 0.443 | 0.628 | 0.813 | 0.69 | 0.906 | 0.37 | 0.951 | 0.545 | 1.01 | 0.496 | 0.508 | 0.45 | 0.502 | 1.19 | 1.49 | 0.767
CERLPYDANKW [FLT1_Y815_S818N] | 0.506 | 0.817 | 0.804 | 0.602 | 1.16 | 0.415 | 1.11 | 0.422 | 1.01 | 0.477 | 0.615 | 0.43 | 0.626 | 0.754 | 0.619 | 0.492
CFTGKYTLPPG [HSPB1_Y142_R140G] | 0.595 | 0.75 | 0.833 | 0.649 | 1.25 | 0.767 | 1.09 | 0.447 | 0.908 | 0.429 | 0.521 | 0.519 | 0.562 | 0.377 | 0.592 | 0.585
CFTRKYTLPPG [HSPB1_Y142] | 0.443 | 0.604 | 0.678 | 0.459 | 1.06 | 0.42 | 0.763 | 0.495 | 0.787 | 0.452 | 0.459 | 0.457 | 0.546 | 0.601 | 0.683 | 0.477
CLAKMYYSAVE [CP_Y539_D544E] | 0.563 | 0.885 | 0.651 | 0.901 | 1.19 | 2.82 | 1.04 | 0.861 | 0.831 | 0.725 | 1.35 | 0.606 | 0.863 | 0.971 | 0.828 | 2.57
CSPLLYRVIMS [OR8D4_Y132] | 0.527 | 0.75 | 0.851 | 0.695 | 1.25 | 0.507 | 1.22 | 0.611 | 0.992 | 0.449 | 0.577 | 0.6 | 0.691 | 0.571 | 0.825 | 0.393
CSRHFYQLTKL [AR_Y858_R856H] | 0.444 | 0.662 | 0.763 | 0.576 | 1.17 | 0.432 | 1.06 | 0.705 | 0.969 | 0.422 | 0.615 | 0.464 | 0.501 | 0.821 | 1.04 | 0.97
CTLLPYFSARV [DGKE_Y269_YF] | 0.453 | 0.736 | 1.11 | 0.615 | 1.11 | 0.424 | 0.987 | 0.518 | 1.09 | 0.43 | 0.515 | 0.508 | 0.613 | 0.711 | 0.791 | 0.523
CTTIHQNFMCN [TP53_Y234_Y234Q_YF] | 0.435 | 0.614 | 0.497 | 0.497 | 0.855 | 0.377 | 0.9 | 0.459 | 0.575 | 0.391 | 0.421 | 0.397 | 0.421 | 1.02 | 1.2 | 1.12
CTTIHYNFMCN [TP53_Y234_Y236F] | 0.436 | 0.645 | 0.661 | 0.485 | 0.923 | 0.405 | 0.861 | 0.509 | 0.824 | 0.487 | 0.516 | 0.456 | 0.428 | 1.93 | 1.8 | 1.84
CTTIHYNFTCN [TP53_Y234_M237T_YF] | 0.443 | 0.593 | 0.634 | 0.6 | 0.866 | 0.42 | 0.797 | 0.496 | 0.704 | 0.441 | 0.426 | 0.414 | 0.448 | 1.83 | 1.96 | 1.67
CVAARYMDMKG [WFIKKN2_Y93_V96M] | 0.439 | 0.637 | 0.542 | 0.428 | 0.984 | 0.446 | 0.755 | 0.36 | 0.654 | 0.39 | 0.431 | 0.471 | 0.394 | 0.765 | 0.95 | 1.39
DALDNYVIRGV [PCCA_Y473] | 0.457 | 0.506 | 0.633 | 0.583 | 0.842 | 0.408 | 0.849 | 0.486 | 0.846 | 0.504 | 0.481 | 0.46 | 0.512 | 0.556 | 0.649 | 0.453
DAVAVCHGKIS [SH2D1A_Y7_Y7C] | 0.472 | 0.628 | 0.59 | 0.471 | 0.745 | 0.403 | 0.658 | 0.467 | 0.774 | 0.406 | 0.467 | 0.458 | 0.387 | 0.539 | 0.71 | 0.536
DEEEEYEFMNR [ERBB3_Y1197_D1194E_YF] | 0.512 | 0.779 | 1.1 | 0.76 | 1.07 | 0.462 | 1.16 | 0.572 | 0.903 | 0.527 | 0.485 | 0.522 | 0.62 | 0.747 | 0.946 | 0.637
